Laboratory results: paper PMC9402430, “Cryo-EM structure of an active bacterial TIR–STING filament complex” (Nature, 2022)
Positions count from the first letter of the chain named.

Columns and labels:
[1] = biological target: T1, SfSTING (Sphingobacterium faecium TIR–STING) (Sphingobacterium faecium, UniProt A0A2T5Y4G4); assay: cryo-EM structure; EMSA; settings: 3x molar c-di-GMP (84 uM); STING CDN-binding pocket at dimer interface; activating ligand
T1 construct: gene cap12; full-length TIR-STING; N-terminal 6xHis fusion, modified pET16, E. coli BL21-CodonPlus(DE3)-RIL; homodimer forming filaments
T1 sequence (A0A2T5Y4G4 1-323): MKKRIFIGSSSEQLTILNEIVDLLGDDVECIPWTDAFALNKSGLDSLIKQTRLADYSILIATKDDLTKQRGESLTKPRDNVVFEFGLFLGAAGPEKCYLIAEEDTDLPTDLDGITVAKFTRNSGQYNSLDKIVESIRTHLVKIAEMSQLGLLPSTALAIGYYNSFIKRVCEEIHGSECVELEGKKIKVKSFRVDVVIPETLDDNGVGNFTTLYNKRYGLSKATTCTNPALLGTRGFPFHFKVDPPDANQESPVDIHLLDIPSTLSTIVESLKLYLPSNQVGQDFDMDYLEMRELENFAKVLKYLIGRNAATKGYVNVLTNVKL

[2] = biological target: T1, SfSTING (Sphingobacterium faecium TIR–STING); assay: fluorescence NADase assay; format: biochemical; settings: 500 uM substrate; 20 uM c-di-GMP activator; 20 mM HEPES-KOH pH 7.5, 100 mM KCl
[3] = biological target: the molecule itself; assay: cryo-EM structure; SfSTING 1 mg/ml rapidly mixed with 3× molar 3′,3′-cGAMP (84 μM), a weakly activating ligand; dimers to short oligomers
[4] = biological target: the molecule itself; assay: cryo-EM structure; SfSTING 1 mg/ml rapidly mixed with 3× molar c-di-GMP (84 μM), frozen within 10 s, 4 °C; second dataset pre-incubated with 1 mM benzamide adenine dinucleotide; dimers to filament (single and antiparallel double filaments)
[5] = biological target: the molecule itself; assay: negative-stain EM; 1 μM wild-type or mutant SfSTING with 10 μM c-di-GMP, 20 mM HEPES-KOH pH 7.5, 250 mM KCl, 1 mM TCEP, 15 min on ice; dimers to filament

In the case of `Nc1nc2c(ncn2[C@@H]2O[C@@H]3COP(=O)(O)O[C@H]4[C@@H](O)[C@H](n5cnc6c(=O)[nH]c(N)nc65)O[C@@H]4COP(=O)(O)O[C@H]3[C@H]2O)c(=O)[nH]1` [c-di-GMP], the “cryo-EM structure; EMSA” value [1] is reported as “cryo-EM density map of the active SfSTING–c-di-GMP filament complex”.

With `NC(=O)c1ccc[n+]([C@@H]2O[C@H](COP(=O)(O)OP(=O)(O)OC[C@H]3O[C@@H](n4cnc5c4ncn4ccnc54)[C@H](O)[C@@H]3O)[C@@H](O)[C@H]2O)c1` [nicotinamide 1,N^6-ethenoadenine dinucleotide] the “fluorescence NADase assay” value [2] was “WT* and E95Q* mutant SfSTING consume the ε-NAD substrate within the deadtime”.

B1: Sphingobacterium faecium TIR–STING (SfSTING), wild type (enzyme, UniProt A0A2T5Y4G4 1-323, looked up)
chain: T1 sequence (A0A2T5Y4G4 1-323)
notes: TIR–STING antiphage effector of the S. faecium CBASS operon; also called WT; source: E. coli BL21-CodonPlus(DE3)-RIL, purified (Ni-NTA, Superdex 200 SEC)
B1 was tested, and the “stoichiometry N” value [3] was 4 to 6 units (dimers) and the “stoichiometry N” value [4] was roughly 85 dimer copies.

B2: SfSTING ΔA36–K41 (TIR BB loop replaced by a glycine-serine linker, D35-GSGG-S42) (enzyme, Sphingobacterium faecium, UniProt A0A2T5Y4G4 1-323, looked up)
chain: MKKRIFIGSSSEQLTILNEIVDLLGDDVECIPWTDGSGGSGLDSLIKQTRLADYSILIATKDDLTKQRGESLTKPRDNVVFEFGLFLGAAGPEKCYLIAEEDTDLPTDLDGITVAKFTRNSGQYNSLDKIVESIRTHLVKIAEMSQLGLLPSTALAIGYYNSFIKRVCEEIHGSECVELEGKKIKVKSFRVDVVIPETLDDNGVGNFTTLYNKRYGLSKATTCTNPALLGTRGFPFHFKVDPPDANQESPVDIHLLDIPSTLSTIVESLKLYLPSNQVGQDFDMDYLEMRELENFAKVLKYLIGRNAATKGYVNVLTNVKL
notes: S. faecium TIR–STING (SfSTING) in which residues A36–K41 of the TIR BB loop are replaced by GSGG (D35-GSGG-S42); Mutant of m1; also called TIR-to-TIR cross-filament contact mutant; SfSTING TIR mutant; source: E. coli BL21-CodonPlus(DE3)-RIL, purified (Ni-NTA, Superdex 200 SEC)
B2: binds [5].

B3: SfSTING D110A (enzyme, Sphingobacterium faecium, UniProt A0A2T5Y4G4 1-323, looked up)
chain: T1 sequence (A0A2T5Y4G4 1-323) with D110A
notes: S. faecium TIR–STING (SfSTING) with a substitution of the TIR DD-loop residue that completes the active site of the dimer mate; Mutant of m1; same vector and purification; also called intradimeric contact mutant; source: E. coli BL21-CodonPlus(DE3)-RIL, purified (Ni-NTA, Superdex 200 SEC)
B3: binds [5].
